Measurements published in the Human Domainome abundance scans (Beltran et al. 2025).
± gives the uncertainty stated by the source.

B1: Receptor-interacting serine/threonine-protein kinase 2, residues 438 to 518; numbered along this chain, O43353 (parent)
chain: QWIQSKREDIVNQMTEACLNQSLDALLSRDLIMKEDYELVSTKPTRTSKVRQLLDTTDIQGEEFAKVIVQKLKDNKQMGLQ
B2: Protein maelstrom homolog, residues 3 to 71; numbered along this chain, Q96JY0 (parent)
chain: NRKASRNAYYFFVQEKIPELRRRGLPVARVADAIPYCSSDWALLREEEKEKYAEMAREWRAAQGKDPGP

Variants of: B1
Assay: abundance fitness (aPCA) (normalised: wild type 0, dead -1); higher = more abundant; growth selection in yeast, the domain comes from the species named
Settings: Homo sapiens

Abundance fitness: each site, then its substitutions
S5: G -0.177 ± 0.24 | P -0.623 ± 0.15 | F -0.636 ± 0.43 | L -0.216 ± 0.15 | E 0.372 ± 0.27 | Q -0.088 ± 0.23 | H -0.824 ± 0.36 | V -0.384 ± 0.16 | K -0.171 ± 0.27 | T -0.315 ± 0.14 | R -0.125 ± 0.16 | D 0.224 ± 0.27 | W -0.639 ± 0.46
R7: P -0.956 ± 0.14 | K 0.032 ± 0.14 | E -0.42 ± 0.13 | L -0.545 ± 0.085 | Q -0.463 ± 0.13 | A -0.334 ± 0.081 | C -1.04 ± 0.31 | I -0.838 ± 0.38 | Y -0.501 ± 0.17 | F -0.027 ± 0.17 | V -0.611 ± 0.085 | W -0.673 ± 0.12 | M -1.09 ± 0.42 | G -0.563 ± 0.079 | S -0.419 ± 0.073
N20: F 0.023 ± 0.37 | T -0.29 ± 0.17 | S -0.043 ± 0.11 | H 0.119 ± 0.38 | V -0.274 ± 0.11 | Q -0.091 ± 0.42 | W 0.075 ± 0.11 | E -0.571 ± 0.36 | R -0.106 ± 0.098 | L -0.102 ± 0.1 | A -0.048 ± 0.21 | P -0.829 ± 0.24 | K 0.117 ± 0.22 | Y 0.112 ± 0.2 | C -0.564 ± 0.16 | G -0.159 ± 0.072
Q13: M -0.369 ± 0.48 | A 0.032 ± 0.19 | L -0.541 ± 0.16 | E -0.027 ± 0.27 | R -0.527 ± 0.18 | G -0.365 ± 0.13 | V -0.199 ± 0.23 | T -0.19 ± 0.28 | S 0.072 ± 0.16 | F -0.314 ± 0.45
I3: L -0.205 ± 0.091 | P -0.194 ± 0.24 | D -0.051 ± 0.34 | K -0.975 ± 0.38 | S -0.767 ± 0.22 | T -0.745 ± 0.42 | M -0.292 ± 0.17 | F -0.771 ± 0.47 | G -0.87 ± 0.25
D9: A -0.288 ± 0.095 | P -0.898 ± 0.15 | N -0.731 ± 0.27 | W -0.147 ± 0.088 | V -0.172 ± 0.078 | T -0.331 ± 0.098 | I 0.255 ± 0.16 | C -0.341 ± 0.19 | E -0.317 ± 0.15 | Y -0.107 ± 0.15 | H -0.336 ± 0.19 | G -0.532 ± 0.092 | Q -0.151 ± 0.077 | K -0.437 ± 0.15 | S -0.303 ± 0.07 | M -0.328 ± 0.19 | F -0.498 ± 0.28
Q4: M 0.279 ± 0.29 | I 0.135 ± 0.39 | A -0.078 ± 0.12 | P -0.923 ± 0.35 | R -0.045 ± 0.1 | F -0.166 ± 0.15 | T 0.458 ± 0.5 | V -0.756 ± 0.34 | S 0.09 ± 0.15 | G -0.685 ± 0.13
T15: L -0.75 ± 0.12 | C -0.877 ± 0.16 | E -0.767 ± 0.27 | D -0.152 ± 0.11 | R -0.937 ± 0.11 | Y -0.946 ± 0.31 | W -1.05 ± 0.21 | G -0.566 ± 0.071 | Q -0.126 ± 0.14 | I -1.12 ± 0.34 | S 0.158 ± 0.042 | V -0.777 ± 0.11 | P -0.492 ± 0.08 | A -0.645 ± 0.11 | K -0.736 ± 0.24 | H -1.13 ± 0.35 | N -0.518 ± 0.093
L19: M -0.306 ± 0.12 | W -1 ± 0.39 | A -0.447 ± 0.1 | K -0.884 ± 0.34 | I 0.024 ± 0.18 | G -0.502 ± 0.088 | F -0.833 ± 0.27 | S -0.792 ± 0.16 | Y -0.607 ± 0.24 | T -0.112 ± 0.3 | V -0.25 ± 0.097 | Q -0.351 ± 0.14 | P -0.3 ± 0.16 | N -0.454 ± 0.34
V11: C -0.288 ± 0.09 | N -0.577 ± 0.27 | I 0.091 ± 0.12 | A -0.49 ± 0.075 | F -0.777 ± 0.46 | P -0.503 ± 0.087 | H -0.656 ± 0.29 | M -0.099 ± 0.15 | G -0.553 ± 0.063 | Q -0.776 ± 0.21 | R -0.534 ± 0.081 | L -0.373 ± 0.074 | W -1.03 ± 0.21 | E -0.376 ± 0.11 | S -0.575 ± 0.071
A17: V 0.004 ± 0.067 | W -0.485 ± 0.1 | K -0.072 ± 0.2 | H -0.043 ± 0.11 | I -0.569 ± 0.21 | T 0.131 ± 0.083 | L -0.186 ± 0.068 | Y -0.137 ± 0.12 | N -0.166 ± 0.17 | C -0.107 ± 0.074 | M -0.25 ± 0.16 | P -0.33 ± 0.057 | S -0.117 ± 0.056 | G -0.175 ± 0.055 | E 0.182 ± 0.11 | Q 0.076 ± 0.088 | F -0.839 ± 0.16 | D 0.042 ± 0.11
I10: M -0.421 ± 0.23 | V -0.628 ± 0.12 | T -0.697 ± 0.15 | A -1.04 ± 0.31 | W -0.968 ± 0.29 | H -0.862 ± 0.23 | C -0.712 ± 0.17 | K -0.619 ± 0.16 | F -0.877 ± 0.47 | G -0.764 ± 0.11 | S -0.618 ± 0.098 | Q -0.541 ± 0.16 | P -0.622 ± 0.14 | Y -0.864 ± 0.28 | L -0.264 ± 0.087 | N -0.476 ± 0.12
C18: I -0.384 ± 0.12 | L -0.519 ± 0.072 | N -0.288 ± 0.16 | H -0.747 ± 0.2 | R -0.559 ± 0.071 | D -0.796 ± 0.25 | V -0.004 ± 0.079 | G -0.425 ± 0.062 | Q -0.316 ± 0.11 | F -0.375 ± 0.19 | M -0.264 ± 0.23 | T 0.158 ± 0.084 | P -0.299 ± 0.074 | A -0.151 ± 0.067 | Y -0.795 ± 0.22 | E 0.062 ± 0.095 | S -0.24 ± 0.061
K6: F 0.095 ± 0.44
Q21: E -0.096 ± 0.1 | H -0.562 ± 0.13 | C -0.475 ± 0.12 | F -0.776 ± 0.28 | A 0.089 ± 0.12 | G -0.432 ± 0.064 | D 0.183 ± 0.11
E8: I -0.768 ± 0.45 | A -0.367 ± 0.076 | G -0.29 ± 0.057 | S -0.276 ± 0.068 | K -0.319 ± 0.23 | P -0.527 ± 0.066 | L -0.507 ± 0.079 | D 0.031 ± 0.24 | T -0.209 ± 0.077 | R -0.36 ± 0.055 | C -0.994 ± 0.41 | H -0.884 ± 0.28 | F -0.691 ± 0.32 | Q -0.569 ± 0.11 | M -0.272 ± 0.16 | W -0.918 ± 0.12 | V -0.301 ± 0.072
E16: Q -0.546 ± 0.12 | G -0.858 ± 0.098 | C -0.853 ± 0.23 | Y -0.576 ± 0.15 | T -0.193 ± 0.079 | L -0.288 ± 0.072 | P -0.539 ± 0.078 | R -0.793 ± 0.082 | V -0.289 ± 0.067 | K -0.537 ± 0.14 | I -0.319 ± 0.11 | D 0.014 ± 0.11 | S -0.272 ± 0.061 | M -0.186 ± 0.19
W2: I 0.069 ± 0.43 | H -0.684 ± 0.24 | C -0.556 ± 0.18 | M -0.4 ± 0.12 | K -0.435 ± 0.14 | L -0.45 ± 0.074 | T -0.609 ± 0.24 | R -0.41 ± 0.088 | G -0.546 ± 0.084 | V -0.632 ± 0.1 | N -0.196 ± 0.2 | Q -0.411 ± 0.14 | D -0.232 ± 0.31 | E -0.438 ± 0.11
Q1: H -0.398 ± 0.4 | L -0.399 ± 0.28 | R -0.389 ± 0.47
N12: W -0.829 ± 0.19 | H -0.108 ± 0.11 | Q -0.248 ± 0.23 | V -0.374 ± 0.086 | L -0.068 ± 0.059 | I -0.486 ± 0.21 | F -0.62 ± 0.16 | P -0.978 ± 0.23 | C -0.028 ± 0.1 | R -0.008 ± 0.059 | K -0.039 ± 0.15 | S -0.213 ± 0.071 | E 0.199 ± 0.21 | A 0.073 ± 0.093 | D -0.089 ± 0.14 | M -0.002 ± 0.19 | Y -0.382 ± 0.4 | G -0.162 ± 0.065

Variants of: B2
Assay: as above
Settings: Homo sapiens

Abundance fitness, by site and new letter:
K65: Y -0.109 ± 0.17 | T -0.26 ± 0.079 | S -0.154 ± 0.066 | R -0.037 ± 0.042 | V -0.12 ± 0.065
D66: R -0.02 ± 0.061 | A -0.148 ± 0.071 | I 0.024 ± 0.094 | E -0.003 ± 0.06 | W -0.155 ± 0.092 | T 0.173 ± 0.12 | H 0.122 ± 0.097 | P -0.052 ± 0.17 | F -0.116 ± 0.073 | K 0.171 ± 0.067 | Q 0.07 ± 0.07 | M 0.051 ± 0.072 | C -0.241 ± 0.11 | L 0.047 ± 0.049 | V 0.018 ± 0.049 | S -0.042 ± 0.065 | Y -0.095 ± 0.072
G68: R -0.079 ± 0.057 | A -0.139 ± 0.1 | Q -0.064 ± 0.1 | E 0.014 ± 0.068 | C -0.12 ± 0.17 | W -0.128 ± 0.098 | S -0.273 ± 0.098 | L -0.309 ± 0.06 | T -0.186 ± 0.15 | V -0.376 ± 0.072 | F -0.119 ± 0.14 | N -0.459 ± 0.26 | I -0.296 ± 0.15 | Y -0.646 ± 0.18 | H 0.038 ± 0.18 | K -0.025 ± 0.11 | M -0.048 ± 0.086 | D -0.083 ± 0.087
P67: L 0.022 ± 0.056 | F -0.101 ± 0.083 | E -0.046 ± 0.084 | K -0.069 ± 0.14 | D -0.43 ± 0.18 | G 0.009 ± 0.048 | T -0.155 ± 0.078 | A -0.098 ± 0.069 | W -0.263 ± 0.07 | V 0.091 ± 0.073 | C -0.417 ± 0.18 | M -0.12 ± 0.09 | N -0.105 ± 0.23 | H 0.024 ± 0.11 | S -0.067 ± 0.065 | R 0.118 ± 0.047
P69: E 0.168 ± 0.31 | K 0.411 ± 0.11 | Q -0.281 ± 0.35 | L 0.189 ± 0.13 | S 0.126 ± 0.083 | F 0.035 ± 0.17 | A -0.007 ± 0.091 | H -0.049 ± 0.17 | I -0.556 ± 0.39 | G 0.392 ± 0.19 | R 0.397 ± 0.18 | Y 0.162 ± 0.36 | C 0.071 ± 0.17 | W 0.11 ± 0.48 | M -0.144 ± 0.14 | N -0.341 ± 0.38 | V 0.013 ± 0.086
